14 molecules from patent publication US20140066368A1 can be followed below.

Bridge positions count the residues as written; N and C are the ends. Ends that are not written are not given here.

The target of this test is amylin receptor (membrane-bound, rat basal forebrain membranes containing the nucleus accumbens and surrounding regions) (rat). Description: competition with ^125I Bolton-Hunter amylin on rat basal forebrain membranes, filtration.
The molecule ^1Ala-h-Amylin (peptide) came in with an IC50 of 0.148 nM. Regarding ^29Pro-h-Amylin (peptide), the IC50 was 0.064 nM. ^1Ser-h-Amylin (peptide) showed an IC50 of 0.033 nM. The result for ^28Pro-h-Amylin (peptide) reads 0.015 nM. For CNTATCATQRLANFLVHSSNNFGPILPSTNVGSNTY [des-^1Lys^25,28Pro-h-Amylin] the value was 0.085 nM. The result for CNTATCATQRLANFLVRSSNNFGPILPSTNVGSNTY [des-^1Lys^18Arg^25,28Pro-h-Amylin] reads 0.082 nM; that for CNTATCATQRLANFLVRSSNNFGPILPPTNVGSNTY [des-^1Lys^18Arg^25,28,29Pro-h-Amylin], 0.021 nM; that for CNTATCATQRLANFLVHSSNNFGPILPPTNVGSNTY [des-^1Lys^25,28,29Pro-h-Amylin], 0.014 nM. Consider KCNTATCATQRLANFLVHSSNNFGPILPSTNVGSNTY [^25,28Pro-h-Amylin], for which the IC50 came to 0.026 nM. This IC50 is about 1.9-fold higher than that of the molecule before. For KCNTATCATQRLANFLVHSSNNFGPVLPPTNVGSNTY [^25Pro^26Val^28,29Pro-h-Amylin] the value was 0.018 nM. KCNTATCATQRLANFLVRSSNNFGPILPSTNVGSNTY [^18Arg^25,28Pro-h-Amylin]: the IC50 was 0.032 nM.

As for KCNTATCATQRLANFLVRSSNNFGPILPPTNVGSNTY [^18Arg^25,28,29Pro-h-Amylin], the IC50 was found to be 0.021 nM. KDNTATKATQRLANFLVHSSNNFGAILSSTNVGSNTY (lactam 2-7; ends not checked) [^2,7Cyclo-[^2Asp,^7Lys]-h-Amylin] had an IC50 of 0.31 nM.

Regarding KCNTATCATQRLANFLVHSSNNFGPILPPTNVGSNTY-NH2 (disulfide 2-7) [^25,28,29Pro-h-Amylin], the IC50 was found to be 0.01 nM.

The IC50 is the midpoint of a concentration-inhibition curve. Low values mean greater potency in that assay, high ones weaker potency in that assay.
